Consider 84 variants from the RNAGym collection of RNA variant scans (doi:10.1093/molbev/msab373).

B1: Azoarcus group I ribozyme (parent)
chain: GUGCCUUGCGCCGGGAAACCACGCAAGGGAUGGUGUCAAAUUCGGCGAAACCUAAGCGCCCGCCCGGGCGUAUGGCAACGCCGAGCCAAGCUUCGGCGCCUGCGCCGAUGAAGGUGUAGAGACUAGACGGCACCCACCUAAGGCAAACGCUAUGGUGAAGGCAUAGUCCAGGGAGUGGCGAAAGUCACACAAACCGG

Variants of B1 are the subject of this series. As to the kind of experiment: reverse-splicing fitness (ratio to wild type); higher = more active; in vitro selection; Mg2+ level not given. The procedure, abridged: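 An in vitro group I ribozyme library with randomized positions was T7-transcribed and gel-purified. In triplicate, 10 pmol RNA in EPPS pH 7.5 was reacted with 50 pmoles of a 30-nt RNA substrate for 1 h at 37 °C across several added MgCl2 levels (1–48 mM), then stopped with EDTA. Products were reverse transcribed from a substrate-complementary primer, PCR-amplified and sequenced (HiSeq 4000). Fitness is a variant's read proportion after selection over that before, normalised to wild type.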
Regarding C82A A120U A145G C150A C169U U176G, the reverse-splicing fitness was 0.003. On to C82A A120U A145U C150U C169A U176C, for which the reverse-splicing fitness is 0.00272. Under C82A A120U A145U C150U C169A U176G stands 0.00171; under C82A A120U A145U C150U C169A U176A, 0.00275. In the case of C82A A120G C169G U176A, the reverse-splicing fitness is 0.0203. The same measure for C82A A120G C169G U176C: 0.0274; for C82A A120G C169G U176G: 0.00368; for C82A A120U A145G C150U: 0.116. The same measure for C82A A120U A145G C150A: 0.0231. Under C82A A120U A145G C150G stands 0.0192; under C82A A120U A145G C150G C169U, 0.00784. As for C82A A120U A145G C150G C169G, the reverse-splicing fitness was determined as 0.00686. The same measure for C82A A120U A145G C150G C169A: 0.0097. C82A A120U A145G C150G C169U U176G: the reverse-splicing fitness is 0.00419.

Regarding C82A A120U A145G C150G C169U U176C, the reverse-splicing fitness is 0.00657. The same measure for C82A A120U A145G C150G C169U U176A: 0.00865; for C82A A120U A145G C150A C169G U176C: 0.00523; for C82A A120U A145G C150A C169G U176G: 0.00227.

For the variant C82A A120U A145G C150A C169G U176A, the reverse-splicing fitness came out at 0.00661. The same measure for C82A A120U A145U C150G C169U: 0.00321.

Take C82A A120U A145U C150G C169G: the reverse-splicing fitness amounted to 0.00265. Turning to C82A A120U A145U C150G C169A, the reverse-splicing fitness worked out at 0.00305. The same measure for C82A A120U A145G C169A U176A: 0.00307. The same measure for C82A A120U A145G C169A U176C: 0.00257; for C82A A120U A145G C169A U176G: 0.00129.

C82A A145C C150A: the reverse-splicing fitness turned out to be 0.0312. The same measure for C82A A145C C150G: 0.0739; for C82A A145C C150U: 0.151. Under C82A A120U A145U C150G U176G stands 0.00318. The same measure for C82A A120U A145U C150G U176A: 0.00533; for C82A A120U A145U C150G U176C: 0.00823. As to C82A A120U A145C C150U C169A U176G, the reverse-splicing fitness turned out to be 0.002. As for C82A A120U A145C C150U C169A U176A, the reverse-splicing fitness was determined as 0.00195. C82A A120U A145C C150U C169A U176C: the reverse-splicing fitness amounted to 0.00251. Consider C82A A120U A145C C169U U176G, for which the reverse-splicing fitness is 0.00109.

Turning to C82A A120U A145C C169U U176C, the reverse-splicing fitness was 0.00274. Under C82A A120U A145C C169U U176A stands 0.00271. Take C82A A120U A145C C169A U176A: the reverse-splicing fitness is 0.00193.

For C82A A120U A145C C169A U176C, the reverse-splicing fitness is 0.0019. The same measure for C82A A120U A145C C169A U176G: 0.00126; for C82A A120U C150U C169A: 0.00439. The same measure for C82A A120U C150U C169U: 0.00643.

Consider C82A A120U C150U C169G, for which the reverse-splicing fitness worked out at 0.00546. Regarding C82A A120U A145G C150U C169U U176A, the reverse-splicing fitness is 0.00414. For C82A A120U A145G C150U C169U U176C, the reverse-splicing fitness turned out to be 0.00493. Regarding C82A A120U A145G C150U C169U U176G, the reverse-splicing fitness worked out at 0.00226. Under C82A A120U C150G C169U stands 0.00543; under C82A A120U C150G C169A, 0.00708.

Take C82A A120U C150G C169G: the reverse-splicing fitness was 0.00634. The same measure for C82A A120U C169U U176C: 0.00453; for C82A A120U C169U U176A: 0.00359. The same measure for C82A A120U C169U U176G: 0.00156; for C82A A120U A145U C150G C169A U176C: 0.00214; for C82A A120U A145U C150G C169A U176A: 0.00324. C82A A120U A145U C150G C169A U176G: the reverse-splicing fitness came to 0.00201.

With C82A A120U A145G C150U C169A U176C, the reverse-splicing fitness is 0.00287.

With C82A A120U A145G C150U C169A U176G, the reverse-splicing fitness stood at 0.00195.

Consider C82A A120U A145G C150U C169A U176A, for which the reverse-splicing fitness was 0.00597. The same measure for C82A A120G C169U U176A: 0.0233. The same measure for C82A A120G C169U U176G: 0.00475.

For the variant C82A A120G C169U U176C, the reverse-splicing fitness was found to be 0.0175. As to C82A A120U C150U C169G U176A, the reverse-splicing fitness was 0.00534.

On to C82A A120U C150U C169G U176C, for which the reverse-splicing fitness amounted to 0.00363.

C82A A120U C150U C169G U176G: the reverse-splicing fitness was 0.00165. Under C82A A145C C150U U176A stands 0.101; under C82A A145C C150U U176C, 0.113. Regarding C82A A145C C150U U176G, the reverse-splicing fitness is 0.0335. Take C82A A120U A145G C150G U176C: the reverse-splicing fitness was found to be 0.0117. The same measure for C82A A120U A145G C150G U176G: 0.00433; for C82A A120U A145G C150G U176A: 0.00758; for C82A A120U A145U C169U U176A: 0.00202. With C82A A120U A145U C169U U176C, the reverse-splicing fitness was 0.00276. The same measure for C82A A120U A145U C169U U176G: 0.00154. Turning to C82A A145C C150A C169G U176A, the reverse-splicing fitness came out at 0.0232.

For the variant C82A A145C C150A C169G U176C, the reverse-splicing fitness came to 0.0122.

On to C82A A145C C150A C169G U176G, for which the reverse-splicing fitness was 0.00671.

For the variant C82A A120U A145C U176G, the reverse-splicing fitness was 0.00979. Under C82A A120U A145C U176C stands 0.0456; under C82A A120U A145C U176A, 0.0307. In the case of C82A A120U A145U C150U C169U U176G, the reverse-splicing fitness worked out at 0.00221. The same measure for C82A A120U A145U C150U C169U U176C: 0.00354; for C82A A120U A145U C150U C169U U176A: 0.00274. The same measure for C82A A120U A145U U176G: 0.01; for C82A A120U A145U U176A: 0.036.
